This note sets out measurements from patent US20210070882A1 (Hoffmann-La Roche, published 2021).

Numbering of substitutions follows the chain as printed. Where “and” joins values, the source holds several entries; their conditions need not be identical. Equal values may be shown once. Read-outs that look alike come from different tables or passages of the source.

Test [1] addresses T1, human CD19 (human, UniProt P15391 20-556).
T1 construct: whole, on cells; also called B-lymphocyte antigen CD19; B-lymphocyte surface antigen B4
T1 sequence (looked up): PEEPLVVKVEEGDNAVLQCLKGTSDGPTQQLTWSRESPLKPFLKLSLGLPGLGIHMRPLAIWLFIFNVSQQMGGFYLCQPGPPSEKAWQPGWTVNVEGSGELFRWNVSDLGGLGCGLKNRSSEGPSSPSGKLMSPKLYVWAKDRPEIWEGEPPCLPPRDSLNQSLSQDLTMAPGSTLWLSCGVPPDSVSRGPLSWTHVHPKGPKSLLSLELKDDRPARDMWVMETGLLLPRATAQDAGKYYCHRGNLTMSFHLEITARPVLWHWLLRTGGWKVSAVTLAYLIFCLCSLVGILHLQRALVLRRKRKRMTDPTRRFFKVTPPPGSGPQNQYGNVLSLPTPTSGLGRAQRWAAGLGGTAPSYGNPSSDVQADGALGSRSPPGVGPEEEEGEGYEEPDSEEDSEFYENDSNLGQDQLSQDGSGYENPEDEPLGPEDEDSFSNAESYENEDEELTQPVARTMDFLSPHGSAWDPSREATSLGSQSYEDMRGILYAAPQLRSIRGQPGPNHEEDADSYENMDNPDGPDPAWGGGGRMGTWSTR
Nature of the test: flow cytometry on CD19-expressing Raji cells. How it is done: The binding of CD19 IgGs and CD19 TCBs to human CD19- and CD3-expressing target cells was tested using CD19-expressing Burkitt's lymphoma cells (Raji) and CD3-expressing immortalized T lymphocyte line (Jurkat). Briefly, cells were harvested, counted, checked for viability and resuspended at 2×10⁶ cells/ml in FACS buffer (100 μl PBS 0.1% BSA). 100 μl of cell suspension (containing 0.2×10⁶ cells) were incubated in round-bottom 96-well plate for 30 min at 4° C. with increasing concentrations of the CD19 IgGs and CD19 TCBs (10 pM-200 nM), washed twice with cold PBS 0.1% BSA, re-incubated for further 30 min at 4° C. with the PE-conjugated AffiniPure F(ab′)2 Fragment goat anti-human IgG Fcg Fragment Specific secondary antibody (Jackson Immuno Research Lab PE #109-116-170), washed twice with cold PBS 0.1% BSA and immediately analyzed by FACS using a FACS Cantoll (Software FACS Diva) by gating live, DAPI-negative, cells.

In test [2] the target is T1, human CD19. Nature of the test: cell-based or functional assay.
Test [3] concerns the target T1, human CD19. Kind of test: cell-based or functional assay. This is another data set of the same source.
In test [4] the target is T1, human CD19. Nature of the test: cell-based or functional assay. The source holds these as a separate data set.
The target in test [5] is T1, human CD19. Kind of test: cell-based or functional assay. The source holds these as a separate data set.

B1: CD19_IgG_10C1 (antibody, V domains shown)
VH: EVQLQQSGPELVKPGASVKMSCKASGYTFTSYVMHWVKQKPGQGLEWIGYINPYNDGTKFNEKFKGKATLTSDKSSSTAYMELSSLTSEDSAVYYCTRGVYYYGSSQGDYWGQGTTLTVSS
VL: DAVMTQTPLSLPVSLGDQASISCRSSQSLENSNGNTYLNWYLQKPGQSPQLLIYRISNRFSGVPDRFNGSGSGTDFTLKISRVEAEDLGVYFCLQVTHVPWTFGGGTKLEIK
notes: also called CD19 IgG (clone 10C1); 10C1 as IgG
For B1, the EC50 with human CD19 [1] is 5.2 nM and 0.763 µg/mL.

B2: Molecule E: 1+1 IgG CrossFab, inverted, without charge modifications (CH1/CL exchange in CD3 binder, parental murine CD19 binder 8B8) (bispecific antibody)
chain 1: not shown
chain 2: QAVVTQEPSLTVSPGGTVTLTCGSSTGAVTTSNYANWVQEKPGQAFRGLIGGTNKRAPGTPARFSGSLLGGKAALTLSGAQPEDEAEYYCALWYSNLWVFGGGTKLTVLSSASTKGPSVFPLAPSSKSTSGGTAALGCLVKDYFPEPVTVSWNSGALTSGVHTFPAVLQSSGLYSLSSVVTVPSSSLGTQTYICNVNHKPSNTKVDKKVEPKSC
chain 3: DAVMTQTPLSLPVSLGDQASISCRSSQSLENSNGNTYLNWYLQKPGQSPQLLIYRVSKRFSGVLDRFSGSGSGTDFTLKISRVEAEDLGVYFCLQLTHVPYTFGGGTKLEIKRTVAAPSVFIFPPSDEQLKSGTASVVCLLNNFYPREAKVQWKVDNALQSGNSQESVTEQDSKDSTYSLSSTLTLSKADYEKHKVYACEVTHQGLSSPVTKSFNRGEC
chain 4: DKTHTCPPCPAPEAAGGPSVFLFPPKPKDTLMISRTPEVTCVVVDVSHEDPEVKFNWYVDGVEVHNAKTKPREEQYNSTYRVVSVLTVLHQDWLNGKEYKCKVSNKALGAPIEKTISKAKGQPREPQVCTLPPSRDELTKNQVSLSCAVKGFYPSDIAVEWESNGQPENNYKTTPPVLDSDGSFFLVSKLTVDKSRWQQGNVFSCSVMHEALHNHYTQKSLSLSP
As to B2, in the test with human CD19 [2], the “T cell activation EC50 upon lysis of Z-138 cells, CD25/CD4” value stood at 3.55 pM; the “T cell activation EC50 upon lysis of Z-138 cells, CD25/CD8” value amounted to 3.31 pM; the “T cell activation EC50 upon lysis of Z-138 cells, CD69/CD4” value came out at 1.04 pM; the “T cell activation EC50 upon lysis of Z-138 cells, CD69/CD8” value worked out at 1.71 pM. In the test with human CD19 [2], the “T cell activation EC50 upon lysis of Z-138 cells, CD107/CD4” value turned out to be 2.09 pM and the “T cell activation EC50 upon lysis of Z-138 cells, CD107/CD8” value amounted to 2.76 pM. Also, in the test with human CD19 [3], the “Tumor cell lysis Z-138 cells (21 h), EC50” value was 0.62 ng/mL and the “Tumor cell lysis Z-138 cells (21 h), EC50 (pM)” value came to 4.2 pM.

B3: Molecule F: 1+1 IgG CrossMab with charge modifications (VH/VL exchange in CD3 binder, charge modification in CD19 binder, parental murine CD19 binder 8B8) (bispecific antibody)
chain 1: EVQLQQSGPELVKPGASVKMACKASGYTFTDYIMHWVKQKTGQGLEWIGYINPYNDGSKYTEKFNGKATLTSDKSSITAYMELSSLTSEDSAVYYCARGTYYYGSALFDYWGQGTTLTVSSASTKGPSVFPLAPSSKSTSGGTAALGCLVEDYFPEPVTVSWNSGALTSGVHTFPAVLQSSGLYSLSSVVTVPSSSLGTQTYICNVNHKPSNTKVDEKVEPKSCDKTHTCPPCPAPEAAGGPSVFLFPPKPKDTLMISRTPEVTCVVVDVSHEDPEVKFNWYVDGVEVHNAKTKPREEQYNSTYRVVSVLTVLHQDWLNGKEYKCKVSNKALGAPIEKTISKAKGQPREPQVCTLPPSRDELTKNQVSLSCAVKGFYPSDIAVEWESNGQPENNYKTTPPVLDSDGSFFLVSKLTVDKSRWQQGNVFSCSVMHEALHNHYTQKSLSLSP
chain 2: EVQLLESGGGLVQPGGSLRLSCAASGFTFSTYAMNWVRQAPGKGLEWVSRIRSKYNNYATYYADSVKGRFTISRDDSKNTLYLQMNSLRAEDTAVYYCVRHGNFGNSYVSWFAYWGQGTLVTVSSASVAAPSVFIFPPSDEQLKSGTASVVCLLNNFYPREAKVQWKVDNALQSGNSQESVTEQDSKDSTYSLSSTLTLSKADYEKHKVYACEVTHQGLSSPVTKSFNRGEC
chain 3: B2 chain 3 with E128R, Q129K
chain 4: not shown
Regarding B3, in the test with human CD19 [2], the “T cell activation EC50 upon lysis of Z-138 cells, CD25/CD4” value was 10 pM; the “T cell activation EC50 upon lysis of Z-138 cells, CD25/CD8” value turned out to be 6.5 pM; the “T cell activation EC50 upon lysis of Z-138 cells, CD69/CD4” value came to 3.97 pM; the “T cell activation EC50 upon lysis of Z-138 cells, CD69/CD8” value came to 2.59 pM. In the test with human CD19 [2], the “T cell activation EC50 upon lysis of Z-138 cells, CD107/CD4” value came to 7.54 pM and the “T cell activation EC50 upon lysis of Z-138 cells, CD107/CD8” value turned out to be 4.02 pM. For the same molecule, in the test with human CD19 [3], the “Tumor cell lysis Z-138 cells (21 h), EC50” value came out at 7.85 ng/mL and the “Tumor cell lysis Z-138 cells (21 h), EC50 (pM)” value came to 53.7 pM.

B4: Molecule A: 2+1 IgG CrossFab, inverted, with charge modifications (VH/VL exchange in CD3 binder, charge modification in CD19 binder, parental murine CD19 … (bispecific antibody)
chain 1: B3 chain 1
chain 2: not shown
chain 3: B3 chain 2
chain 4: B2 chain 3 with E128R, Q129K
Turning to B4, in the test with human CD19 [4], the “Tumor cell lysis Z-138 cells (21 h), EC50” value was determined as 0.92 ng/mL and the “Tumor cell lysis Z-138 cells (21 h), EC50 (pM)” value is about 4.7 pM. Also, in the test with human CD19 [5], the “T cell activation EC50 upon lysis of Z-138 cells, CD25/CD4” value is about 4.58 pM; the “T cell activation EC50 upon lysis of Z-138 cells, CD25/CD8” value was 2.87 pM; the “T cell activation EC50 upon lysis of Z-138 cells, CD69/CD4” value was determined as 1.41 pM; the “T cell activation EC50 upon lysis of Z-138 cells, CD69/CD8” value amounted to 1.37 pM. Moreover, in the test with human CD19 [5], the “T cell activation EC50 upon lysis of Z-138 cells, CD107/CD4” value was found to be 2.34 pM and the “T cell activation EC50 upon lysis of Z-138 cells, CD107/CD8” value turned out to be 2 pM.

B5: Molecule G: 2+1 IgG CrossFab, inverted, with charge modifications (VH/VL exchange in CD19 binder, charge modification in CD3 binder, parental murine CD19 … (bispecific antibody)
chain 1: DAVMTQTPLSLPVSLGDQASISCRSSQSLENSNGNTYLNWYLQKPGQSPQLLIYRVSKRFSGVLDRFSGSGSGTDFTLKISRVEAEDLGVYFCLQLTHVPYTFGGGTKLEIKSSASTKGPSVFPLAPSSKSTSGGTAALGCLVKDYFPEPVTVSWNSGALTSGVHTFPAVLQSSGLYSLSSVVTVPSSSLGTQTYICNVNHKPSNTKVDKKVEPKSCDKTHTCPPCPAPEAAGGPSVFLFPPKPKDTLMISRTPEVTCVVVDVSHEDPEVKFNWYVDGVEVHNAKTKPREEQYNSTYRVVSVLTVLHQDWLNGKEYKCKVSNKALGAPIEKTISKAKGQPREPQVCTLPPSRDELTKNQVSLSCAVKGFYPSDIAVEWESNGQPENNYKTTPPVLDSDGSFFLVSKLTVDKSRWQQGNVFSCSVMHEALHNHYTQKSLSLSP
chain 2: not shown
chain 3: EVQLQQSGPELVKPGASVKMACKASGYTFTDYIMHWVKQKTGQGLEWIGYINPYNDGSKYTEKFNGKATLTSDKSSITAYMELSSLTSEDSAVYYCARGTYYYGSALFDYWGQGTTLTVSSASVAAPSVFIFPPSDEQLKSGTASVVCLLNNFYPREAKVQWKVDNALQSGNSQESVTEQDSKDSTYSLSSTLTLSKADYEKHKVYACEVTHQGLSSPVTKSFNRGEC
chain 4: QAVVTQEPSLTVSPGGTVTLTCGSSTGAVTTSNYANWVQEKPGQAFRGLIGGTNKRAPGTPARFSGSLLGGKAALTLSGAQPEDEAEYYCALWYSNLWVFGGGTKLTVLGQPKAAPSVTLFPPSSKKLQANKATLVCLISDFYPGAVTVAWKADSSPVKAGVETTTPSKQSNNKYAASSYLSLTPEQWKSHRSYSCQVTHEGSTVEKTVAPTECS
As to B5, in the test with human CD19 [4], the “Tumor cell lysis Z-138 cells (21 h), EC50” value amounted to 0.57 ng/mL and the “Tumor cell lysis Z-138 cells (21 h), EC50 (pM)” value amounted to 2.93 pM. Besides, in the test with human CD19 [5], the “T cell activation EC50 upon lysis of Z-138 cells, CD25/CD4” value was 1.85 pM; the “T cell activation EC50 upon lysis of Z-138 cells, CD25/CD8” value was 1.53 pM; the “T cell activation EC50 upon lysis of Z-138 cells, CD69/CD4” value is about 0.75 pM; the “T cell activation EC50 upon lysis of Z-138 cells, CD69/CD8” value is 0.7 pM. Also, in the test with human CD19 [5], the “T cell activation EC50 upon lysis of Z-138 cells, CD107/CD4” value turned out to be 1.14 pM and the “T cell activation EC50 upon lysis of Z-138 cells, CD107/CD8” value was 1.13 pM.
